Key:
[1] = biological target: human CSQ2 D348C mutant, without the signal peptide (human) (UniProt O14958); assay: cell-based or functional assay
[2] = biological target: the molecule itself; assay: crystal structure of rat CSQ2 with 200 mM Ca2+, homodimers in the asymmetric unit
Description: Human CSQ2 crystals were obtained according to a hanging drop vapor diffusion method (24-well hanging drop plate, XtalQuest) at 16° C. using 1.5 μL protein solution (25 mg/ml) and 1.5 μL reservoir solution containing 100 mM Na cacodylate (pH 6.0), 25% (vol/vol) 2-methyl-2,4-pentanedio (MPD) and 40 mM calcium lactate. Small needle-like crystals appeared within two days. After several rounds of stick seeding, the crystals had grown to approximately 50×50×400 μm. The Se-Met CSQ2 crystals were obtained using the same process. Diffraction data of native and Se-Met crystals were collected and were prcessed using CCP4 program suit (see, e.g., Winn, M. D. et al. Overview of the CCP4 suite and current developments. Acta. Crystallogr. D. Biol. Crystallogr. 67, 235-242 (2011). doi: 10.1107/S0907444910045749). The initial phase was determined by MR-SAD using PHENIX (see, e.g., P. D. Adams et al., PHENIX: a comprehensive Python-based system for macromolecular structure solution. Acta. Crystallogr. D. Biol. Crystallogr. 66, 213-221 (2010). doi: 10.1107/S0907444909052925). […] The phase was determined by molecular replacement using human CSQ2 structure as a searching model. […]
The crystal structures of the human CSQ2 protein and the rat CSQ2 protein were determined to be 2.2 Å and 2.8 Å with a high concentration of Ca²⁺ in the reservoir solution (40 mM Ca²⁺ for human CSQ2, 200 mM Ca²⁺ for rat CSQ2). […]

| current of the CSQ2-immobilized single-molecule junction at 25 mV bias (1 mM Ca2+, 1.2 mM Mg2+) [1] [pA] | Molecule | binding result [2] |
| --- | --- | --- |
| 15 | human CSQ2 D348C mutant, without the signal peptide (from UniProt O14958 20-399) | – |
| – | rat CSQ2 (calsequestrin 2), amino acids 20-413, without the signal peptide (other, Entered as the monomer) EEGLNFPTYDGKDRVVSLSEKNLKQVLKRYDLLCLYYHEPVSSDKVAQKQFQLKEIVLELVAQVLEHKNIGFVMVDSRKEAKLAKRLGFSEEGSLYVLKGGRTIEFDGEFAADVLVEFLLDLIEDPVEIVNNKLEVQAFERIEDQIKLLGFFKNEDSEYYKAFQEAAEHFQPYIKFFATFDKGVAKKLSLKMNEVGFYEPFMDEPSVIPNKPYTEEELVEFVKEHQRPTLRPLRPEDMFETWEDDLNGIHIVAFAEKSDPDGYEFLEILKQVARDNTDNPDLSILWIDPDDFPLLVAYWEKTFKIDLFKPQIGVVNVTDADSVWMEIPDDDDLPTAEELEDWIEDVLSGKINTEDDDNEDEDDDGDNDNDDDDDDDDNDDEDNDDDDDDDDDDE | binds |

Source: US20220213157A1 (PEKING UNIVERSITY, published 2022)
